# Reference: article PMC12077105, “PASTA kinase signaling regulates peptidoglycan synthesis in Enterococcus faecalis by direct inhibition of UDP-N-acetylglucosamine 1-carboxyvinyl transferase activity” (mBio, 2025)
# B1: purified recombinant wild-type IreB (expressed as His6-SUMO-IreB) (natural protein)
# chain: MGFTDETVRFDFDDNRKKAISETLETVYRALEEKGYNPINQIVGYLLSGDPAYIPRYQDARNLIRRHERDEIMEELTKYYLANHGIDIK
# notes: IreB of Enterococcus faecalis; wild-type allele amplified from OG1RF genomic DNA; IreB for the enzymatic assays was purified in MOPS buffer; also called unphosphorylated IreB; source: E. coli BL21(DE3), purified (Ni-charged resin)
# Columns and labels:
# [1] = biological target: recombinant MurAB-His6 (E. faecalis) (UniProt Q836E5); test: thermal shift assay; 2.5 uM MurAB with rising molar ratios of test protein, 10x SYPRO Orange, 50 mM Tris, 25 mM NaCl, pH 7.5; change of the MurAB melt temperature
# [2] = biological target: T1, recombinant MurAB-His6 (E. faecalis, UniProt Q836E5 1-430); test: cell-based or functional assay
# T1 sequence: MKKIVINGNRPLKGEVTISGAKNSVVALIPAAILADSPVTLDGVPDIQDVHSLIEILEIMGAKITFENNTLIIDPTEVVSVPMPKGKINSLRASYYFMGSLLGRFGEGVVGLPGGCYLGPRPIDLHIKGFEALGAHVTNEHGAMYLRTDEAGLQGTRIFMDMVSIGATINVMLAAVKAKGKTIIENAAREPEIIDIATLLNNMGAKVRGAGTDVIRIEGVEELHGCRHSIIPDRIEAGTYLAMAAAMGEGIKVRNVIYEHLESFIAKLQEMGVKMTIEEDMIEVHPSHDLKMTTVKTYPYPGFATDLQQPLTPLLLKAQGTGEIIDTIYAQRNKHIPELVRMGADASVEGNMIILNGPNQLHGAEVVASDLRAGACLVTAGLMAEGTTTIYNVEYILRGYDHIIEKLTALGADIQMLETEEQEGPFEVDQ
# [3] = biological target: T1, recombinant MurAB-His6; test: thermal shift assay; 2.5 uM MurAB with rising molar ratios of test protein, 10x SYPRO Orange, 50 mM Tris, 25 mM NaCl, pH 7.5; change of the MurAB melt temperature; details: both partners purified
molecule,measurement,setting,value
purified recombinant IreB D50A (expressed as His6-SUMO-IreB D50A) (from UniProt Q836B3 1-89) (natural protein),maximum shift of the MurAB Tm,[1],1.5 °C
B1,UNAG-CTase activity of purified MurAB (release of inorganic phosphate) with 10-fold molar excess of IreB: decrease of the reaction rate,[2],~25%
same,maximum shift of the MurAB Tm,[3],5 °C
